Results: article PMC3509445 (Biology Open, 2012)

Key:
GST-TLX ΔN (Δ1-187) = GST-TLX ΔN (Δ1-187) (mouse, UniProt Q64104 188-385); assay: pull-down
GST-TLX ΔC341-385 = GST-TLX ΔC341-385 (mouse, UniProt Q64104 1-340); assay: pull-down
Sequence of GST-TLX ΔC341-385 (Q64104 1-340, stated change not applied): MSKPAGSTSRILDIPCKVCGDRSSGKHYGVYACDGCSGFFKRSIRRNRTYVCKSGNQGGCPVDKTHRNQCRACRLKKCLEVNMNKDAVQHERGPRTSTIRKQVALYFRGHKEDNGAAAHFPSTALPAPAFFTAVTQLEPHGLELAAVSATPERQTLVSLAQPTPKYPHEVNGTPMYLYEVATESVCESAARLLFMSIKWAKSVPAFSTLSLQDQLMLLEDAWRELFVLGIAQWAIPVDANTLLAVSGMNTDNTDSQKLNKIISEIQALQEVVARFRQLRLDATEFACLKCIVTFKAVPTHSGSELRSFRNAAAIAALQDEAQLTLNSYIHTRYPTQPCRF

Sequence of GST-TLX ΔN (Δ1-187) (Q64104 188-385, stated change not applied): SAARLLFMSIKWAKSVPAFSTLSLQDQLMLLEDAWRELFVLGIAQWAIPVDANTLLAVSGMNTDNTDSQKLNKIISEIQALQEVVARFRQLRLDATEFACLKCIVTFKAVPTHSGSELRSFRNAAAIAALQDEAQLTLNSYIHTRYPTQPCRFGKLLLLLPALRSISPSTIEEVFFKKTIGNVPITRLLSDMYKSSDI

binding result (GST-TLX ΔN (Δ1-187)): binds
binding result (GST-TLX ΔC341-385): binds
B1: ThioHis-VHL30Δ95-123 (natural protein, UniProt P40337-1 1-213, looked up)
chain: MPRRAENWDEAEVGAEEAGVEEYGPEEDGGEESGAEESGPEESGPEELGAEEEMEAGRPRPVLRSVNSREPSQVIFCNRSPRVVLPVWLNFDGETHDGLLVNQTELFVPSLNVDGQPIFANITLPVYTLKERCLQVVRSLVKPENYRRLDIVRSLYEDLEDHPNVQKDLERLTQERIAHQRMGD
